Measurements as given in patent publication US20230057622A1.
Like-named read-outs stand apart in the source and are kept apart here.

Tests used:
receptor on MCF-7 cells [1] = test: cell-based or functional assay
receptor on MCF-7 cells [2] = test: cell-based or functional assay; remark: listed apart in the source

Q: For “recombinant NRG polypeptide with an amino acid sequence of SEQ ID NO: 1 (from UniProt Q02297-11 122-190) (ligand)”, which EC50 (receptor on MCF-7 cells [1]) is on record?
A: 1.65 nM

Q: What about the EC50 (receptor on MCF-7 cells [2]) of the same substance?
A: 0.924 nM
